Assay [1] addresses Myc-Vps34/PtdIns3K (Myc-tagged hVps34) (human, UniProt Q8NEB9 1-887). Description: cell-based or functional assay.
Assay [2] addresses T1, Rubicon-EGFP (full-length mouse Rubicon tagged with EGFP at the C-terminus) (mouse, UniProt Q80U62 1-956).
T1 construct: also called EGFP-tagged Rubicon; GFP-tagged full-length Rubicon; not shown: EGFP tag at the C-terminus (pEGFP-N3 vector)
T1 sequence: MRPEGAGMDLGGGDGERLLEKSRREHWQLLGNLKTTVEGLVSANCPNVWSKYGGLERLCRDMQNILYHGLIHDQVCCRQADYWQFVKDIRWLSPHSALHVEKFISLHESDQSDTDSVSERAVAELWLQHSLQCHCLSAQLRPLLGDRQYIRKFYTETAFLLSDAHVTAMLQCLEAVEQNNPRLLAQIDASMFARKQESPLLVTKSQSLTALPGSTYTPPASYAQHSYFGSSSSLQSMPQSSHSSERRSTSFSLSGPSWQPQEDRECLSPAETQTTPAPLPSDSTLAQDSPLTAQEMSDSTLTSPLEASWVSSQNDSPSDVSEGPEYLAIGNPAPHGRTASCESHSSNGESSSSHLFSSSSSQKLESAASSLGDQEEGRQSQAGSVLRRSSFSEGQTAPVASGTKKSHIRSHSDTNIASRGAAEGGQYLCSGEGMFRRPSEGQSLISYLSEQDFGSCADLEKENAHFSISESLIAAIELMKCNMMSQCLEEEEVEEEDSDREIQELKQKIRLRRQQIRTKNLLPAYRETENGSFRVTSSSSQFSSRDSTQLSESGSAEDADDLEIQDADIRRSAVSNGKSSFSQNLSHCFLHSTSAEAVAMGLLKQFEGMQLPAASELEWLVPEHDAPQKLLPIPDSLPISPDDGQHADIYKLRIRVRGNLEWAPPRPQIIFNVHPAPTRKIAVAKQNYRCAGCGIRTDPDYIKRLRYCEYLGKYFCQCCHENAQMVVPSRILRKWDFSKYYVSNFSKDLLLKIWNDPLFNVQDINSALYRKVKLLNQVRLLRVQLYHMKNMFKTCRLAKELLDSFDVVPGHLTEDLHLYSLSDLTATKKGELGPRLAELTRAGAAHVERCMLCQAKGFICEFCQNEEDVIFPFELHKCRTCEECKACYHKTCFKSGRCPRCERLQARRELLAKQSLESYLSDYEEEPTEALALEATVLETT
Description: co-IP with anti-GFP antibody from co-transfected HEK 293T cells, anti-FLAG blot. From the text: (§1) FIG. 2A-E. Mapping of the binding domains that mediate the interaction between Beclin 1 and ATG14L/Rubicon. (A) Schematic representations of Beclin 1, ATG14L and Rubicon domain structures and the construction of multiple deletion mutants. The Beclin 1 mutants were tagged with FLAG at N-termini. The ATG14L or Rubicon mutants were tagged with EGFP at C-termini. (B) and (C) Domain mapping in Beclin 1 sequence required for binding ATG14L or Rubicon. HEK 293T cells were co-transfected with FLAG-tagged Beclin 1 mutant constructs and GFP-tagged full-length ATG14L […]. The immunoprecipitation was performed with anti-GFP antibody, followed by Western blotting with anti-FLAG antibody.
(§2) DNA plasmids were transfected into HEK 293T cells for immunoprecipitation. For Co-immunoprecipitation experiments, two or three plasmids were transfected simultaneously in equal amount. Cells were lysed in immunoprecipitation lysis buffer (20 mM HEPES, pH7.4/1 mM MgCl2/0.25 mM CaCl2/0.2% Triton X-100/150 mM NaCl/protease inhibitor and PMSF-pepstatin/DNaseI). For immunoprecipitation with GFP, ATG14L or Rubicon antibody, Dynabeads M-270 E-proxy (Invitrogen, Carlsbad, Calif.) were conjugated with each antibody, and incubated with cell lysate at 4° C. for 2 hours. After the beads were washed in ATG14L or Rubicon lysis buffer for 5 times, proteins were eluted by incubating beads in elution buffer (0.5 mM EDTA, pH8/0.5N NH₃.H₂O) at room temperature for 20 minutes and dried with vacuum speed centrifuge. For FLAG-tagged protein IP, Anti-FLAG M2 affinity resin (Sigma, St Louis, Mo.) was used and the manufacture's protocol was followed.

The target in assay [3] is T2, ATG14L-EGFP (full-length mouse ATG14L tagged with EGFP at the C-terminus) (mouse, UniProt Q8CDJ3 1-492).
T2 construct: Mouse cDNA cloned into pEGFP-N3 and expressed in HEK 293/293T or HeLa cells; also called EGFP-tagged ATG14L; GFP-tagged full-length ATG14L; not shown: EGFP tag at the C-terminus (pEGFP-N3 vector)
The description is as above.
From the text: as §1, §2

Assay [4] addresses T1, Rubicon-EGFP (full-length mouse Rubicon …). The assay is described as follows: co-IP with anti-GFP antibody from co-transfected HEK 293T cells (FIG. 11).
Assay [5] deals with T2, ATG14L-EGFP (full-length mouse ATG14L …). Described as above.
For assay [6], the target named is T3, ATG14L (endogenous, mouse tissue or NIH 3T3 cells) (mouse, UniProt Q8CDJ3 1-492).
T3 construct: also called BISC
Description: co-IP of endogenous proteins with anti-ATG14L antibody from NIH 3T3 cell lysates, Western blot. Background: A western blot detects proteins with antibodies after separation by electrophoresis.

Assay [7] has as its target T2, ATG14L-EGFP (full-length mouse ATG14L …). The assay is described as follows: co-IP with anti-GFP antibody from co-transfected HEK 293T cells; anti-FLAG blot.
From the text: as §1
DNA plasmids were transfected into HEK 293T cells for immunoprecipitation. For Co-immunoprecipitation experiments, two or three plasmids were transfected simultaneously in equal amount. Cells were lysed in immunoprecipitation lysis buffer (20 mM HEPES, pH7.4/1 mM MgCl2/0.25 mM CaCl2/0.2% Triton X-100/150 mM NaCl/protease inhibitor and PMSF-pepstatin/DNaseI). For immunoprecipitation with GFP, ATG14L or Rubicon antibody, Dynabeads M-270 E-proxy (Invitrogen, Carlsbad, Calif.) were conjugated with each antibody, and incubated with cell lysate at 4° C. for 2 hours. […]

Myc-Vps34/PtdIns3K (Myc-tagged hVps34), sequence (Q8NEB9 whole entry): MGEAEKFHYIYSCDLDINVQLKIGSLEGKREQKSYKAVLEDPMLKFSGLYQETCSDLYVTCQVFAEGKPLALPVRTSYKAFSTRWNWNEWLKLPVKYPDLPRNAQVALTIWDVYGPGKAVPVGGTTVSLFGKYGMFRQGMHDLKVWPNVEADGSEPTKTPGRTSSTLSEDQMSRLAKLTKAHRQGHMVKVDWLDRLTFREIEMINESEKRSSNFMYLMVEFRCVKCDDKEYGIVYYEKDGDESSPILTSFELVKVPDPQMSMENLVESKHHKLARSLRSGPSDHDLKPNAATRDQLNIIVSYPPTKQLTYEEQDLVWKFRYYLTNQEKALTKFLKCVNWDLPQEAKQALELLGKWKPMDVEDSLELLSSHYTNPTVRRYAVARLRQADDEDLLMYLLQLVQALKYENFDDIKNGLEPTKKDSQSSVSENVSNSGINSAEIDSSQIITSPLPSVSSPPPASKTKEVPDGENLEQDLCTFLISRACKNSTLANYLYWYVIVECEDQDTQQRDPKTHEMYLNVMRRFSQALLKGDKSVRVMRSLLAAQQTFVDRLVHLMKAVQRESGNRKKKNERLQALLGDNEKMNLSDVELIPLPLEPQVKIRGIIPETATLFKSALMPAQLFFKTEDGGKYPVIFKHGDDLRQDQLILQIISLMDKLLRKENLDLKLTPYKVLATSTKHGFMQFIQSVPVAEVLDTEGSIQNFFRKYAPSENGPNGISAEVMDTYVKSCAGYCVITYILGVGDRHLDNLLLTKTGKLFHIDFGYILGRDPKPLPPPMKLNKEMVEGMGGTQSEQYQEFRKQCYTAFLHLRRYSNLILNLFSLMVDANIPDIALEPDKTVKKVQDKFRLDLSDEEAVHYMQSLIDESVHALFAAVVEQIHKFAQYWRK

B1: FLAG-ATG14L (mouse ATG14L tagged with FLAG at the N-terminus) (other, not shown: small tags and cut ends)
chain: MASPSGKGSWTPEAPGFGPRALARDLVDSVDDAEGLYVAVERCPLCNTTRRRLTCAKCVQSGDFVYFDGRDRERFIDKKERLSQLKNKQEEFQKEVLKAMEGKRLTDQLRWKIMSCKMRIEQLKQTICKGNEEMKKNSEGLLKNKEKNQKLYSRAQRHQEKKEKIQRHNRKLGDLVEKKTIDLKSHYERLARLRRSHILELTSIIFPIDEVKTSGRDPADVSSETDSAMTSSMVSKLAEARRTTYLSGRWVCDDHNGDTSISITGPWISLPNNGDYSAYYNWVEEKKTTQGPDMEHNNPAYTISAALGYATQLVNIVSHILDINLPKKLCNSEFCGENLSKQKLTRAVRKLNANILYLCSSQHVNLDQLQPLHTLRNLMHLVSPRSEHLGRSGPFEVRADLEESMEFVDPGVAGESDASGDERVSDEETDLGTDWENLPSPRFCDIPSQPVEVSQSQSTQVSPPIASSSAGGMISSAAASVTSWFKAYTGHR
Take B1: the “Vps34 kinase activity (radioactive PtdIns(3)P normalized against immunoprecipitated Myc-tagged Vps34), over-expressed ATG14L against empty vector, in the presence of Beclin 1” value in assay [1] was 2.5 ratio.

B2: FLAG-Rubicon (mouse Rubicon tagged with FLAG at the N-terminus) (other, not shown: small tags and cut ends)
chain: MRPEGAGMDLGGGDGERLLEKSRREHWQLLGNLKTTVEGLVSANCPNVWSKYGGLERLCRDMQNILYHGLIHDQVCCRQADYWQFVKDIRWLSPHSALHVEKFISLHESDQSDTDSVSERAVAELWLQHSLQCHCLSAQLRPLLGDRQYIRKFYTETAFLLSDAHVTAMLQCLEAVEQNNPRLLAQIDASMFARKQESPLLVTKSQSLTALPGSTYTPPASYAQHSYFGSSSSLQSMPQSSHSSERRSTSFSLSGPSWQPQEDRECLSPAETQTTPAPLPSDSTLAQDSPLTAQEMSDSTLTSPLEASWVSSQNDSPSDVSEGPEYLAIGNPAPHGRTASCESHSSNGESSSSHLFSSSSSQKLESAASSLGDQEEGRQSQAGSVLRRSSFSEGQTAPVASGTKKSHIRSHSDTNIASRGAAEGGQYLCSGEGMFRRPSEGQSLISYLSEQDFGSCADLEKENAHFSISESLIAAIELMKCNMMSQCLEEEEVEEEDSDREIQELKQKIRLRRQQIRTKNLLPAYRETENGSFRVTSSSSQFSSRDSTQLSESGSAEDADDLEIQDADIRRSAVSNGKSSFSQNLSHCFLHSTSAEAVAMGLLKQFEGMQLPAASELEWLVPEHDAPQKLLPIPDSLPISPDDGQHADIYKLRIRVRGNLEWAPPRPQIIFNVHPAPTRKIAVAKQNYRCAGCGIRTDPDYIKRLRYCEYLGKYFCQCCHENAQMVVPSRILRKWDFSKYYVSNFSKDLLLKIWNDPLFNVQDINSALYRKVKLLNQVRLLRVQLYHMKNMFKTCRLAKELLDSFDVVPGHLTEDLHLYSLSDLTATKKGELGPRLAELTRAGAAHVERCMLCQAKGFICEFCQNEEDVIFPFELHKCRTCEECKACYHKTCFKSGRCPRCERLQARRELLAKQSLESYLSDYEEEPTEALALEATVLETT
Regarding B2, the “Vps34 kinase activity (radioactive PtdIns(3)P normalized against immunoprecipitated Myc-tagged Vps34), over-expressed Rubicon against empty vector, in the absence of Beclin 1” value in assay [1] came out at 0.58 ratio.

B3: FLAG-Beclin 1 ECD domain (aa 244-448) (other)
chain: ELKSVENQVRYAQIQLDKLKKTNVFNATFHIWHSGQFGTINNFRLGRLPSVPVEWNEINAAWGQTVLLLHALANKMGLKFQRYRLVPYGNHSYLESLTDKSKELPLYCSGGLRFFWDNKFDHAMVAFLDCVQQFKEEVEKGETRFCLPYRMDVEKGKIEDTGGSGGSYSIKTQFNSEEQWTKALKFMLTNLKWGLAWVSSQFYNK
notes: also called E (Evolutionarily conserved domain); FLAG-E; not shown: FLAG tag at the N-terminus (pCMV-FLAG2 vector)
Regarding B3, the binding result in assay [2] and in assay [3] was “no binding” each time.

B4: FLAG-Beclin 1 BC (Bcl2-binding domain and Coiled-coil domain) (other)
chain: MEGSKASSSTMQVSFVCQRCSQPLKLDTSFKILDRVTIQELTAPLLTTAQAKPGETQEEEANSGEEPFIETRQDGVSRRFIPPARMMSTESANSFTLIGEASDGGTMENLSRRLKVTGDLFDIMSGQTDVDHPLCEECTDTLLDQLDTQLNVTENECQNYKRCLEILEQMNEDDSEQLQRELKELALEEERLIQELEDVEKNRKVVAENLEKVQAEAERLDQEEAQYQREYSEFKRQQLELDDELKSVENQVRYAQIQLDKLKKTNVFN
notes: also called FLAG-BC; not shown: FLAG tag at the N-terminus (pCMV-FLAG2 vector)
B4: in assay [2], the binding result was “no binding”.

B5: Beclin 1-AsRed (other)
chain: MEGSKASSSTMQVSFVCQRCSQPLKLDTSFKILDRVTIQELTAPLLTTAQAKPGETQEEEANSGEEPFIETRQDGVSRRFIPPARMMSTESANSFTLIGEASDGGTMENLSRRLKVTGDLFDIMSGQTDVDHPLCEECTDTLLDQLDTQLNVTENECQNYKRCLEILEQMNEDDSEQLQRELKELALEEERLIQELEDVEKNRKVVAENLEKVQAEAERLDQEEAQYQREYSEFKRQQLELDDELKSVENQVRYAQIQLDKLKKTNVFNATFHIWHSGQFGTINNFRLGRLPSVPVEWNEINAAWGQTVLLLHALANKMGLKFQRYRLVPYGNHSYLESLTDKSKELPLYCSGGLRFFWDNKFDHAMVAFLDCVQQFKEEVEKGETRFCLPYRMDVEKGKIEDTGGSGGSYSIKTQFNSEEQWTKALKFMLTNLKWGLAWVSSQFYNK
notes: Beclin 1 cDNA from mouse brain cloned into pAs-Red; not shown: AsRed fluorescent protein tag (pAs-Red vector)
Turning to B5, the binding result in assay [4] and in assay [5] was “binds” throughout.

B6: endogenous Beclin 1 of NIH 3T3 cells / mouse tissue (other)
chain: MEGSKASSSTMQVSFVCQRCSQPLKLDTSFKILDRVTIQELTAPLLTTAQAKPGETQEEEANSGEEPFIETRQDGVSRRFIPPARMMSTESANSFTLIGEASDGGTMENLSRRLKVTGDLFDIMSGQTDVDHPLCEECTDTLLDQLDTQLNVTENECQNYKRCLEILEQMNEDDSEQLQRELKELALEEERLIQELEDVEKNRKVVAENLEKVQAEAERLDQEEAQYQREYSEFKRQQLELDDELKSVENQVRYAQIQLDKLKKTNVFNATFHIWHSGQFGTINNFRLGRLPSVPVEWNEINAAWGQTVLLLHALANKMGLKFQRYRLVPYGNHSYLESLTDKSKELPLYCSGGLRFFWDNKFDHAMVAFLDCVQQFKEEVEKGETRFCLPYRMDVEKGKIEDTGGSGGSYSIKTQFNSEEQWTKALKFMLTNLKWGLAWVSSQFYNK
notes: NIH 3T3 is a mouse cell line (inference)
Turning to B6, the binding result in assay [6] was “binds”.

B7: FLAG-Beclin 1 BD domain (aa 1-150) (other)
chain: MEGSKASSSTMQVSFVCQRCSQPLKLDTSFKILDRVTIQELTAPLLTTAQAKPGETQEEEANSGEEPFIETRQDGVSRRFIPPARMMSTESANSFTLIGEASDGGTMENLSRRLKVTGDLFDIMSGQTDVDHPLCEECTDTLLDQLDTQL
notes: not shown: FLAG tag at the N-terminus (pCMV-FLAG2 vector)
As for B7, the binding result in assay [2] and in assay [3] was “no binding” throughout.

B8: FLAG-Beclin 1 CCD domain (aa 144-269) (other)
chain: DQLDTQLNVTENECQNYKRCLEILEQMNEDDSEQLQRELKELALEEERLIQELEDVEKNRKVVAENLEKVQAEAERLDQEEAQYQREYSEFKRQQLELDDELKSVENQVRYAQIQLDKLKKTNVFN
notes: aa 144-269 is printed for the CCD domain of Beclin 1; also called C (Coiled-coil domain); FLAG-C; not shown: FLAG tag at the N-terminus (pCMV-FLAG2 vector)
Regarding B8, the figures for the binding result in assay [2] and in assay [7] were “no binding” and “binds”, respectively.

Values taken from US20120041175A1 (ROCKEFELLER UNIVERISTY, published 2012).
